In article doi:10.1101/2022.02.16.480668 (bioRxiv, 2022):

Target: the molecule itself
Assay: negative-stain electron microscopy of filaments on vesicles

B1: Vps60 (natural protein)
chain: MNRIFGYGNKKSHDQLLQESNQSMNQAQQSLSNRISQLDTQIAQLNFQLQNIQKNLQRSNNKQPSLRKQALKILNKRKQLENMKDSLDSQSWSMTQAQLTNDNLQNTMITINALKQTNNAMKAQYGKINIDKLQDMQDEMLDLIEQGDELQEVLAMNNNSGELDDISDAELDAELDALAQEDFTLPTSENSLGNDMPSYLLGANAPPAFIDEEPNLDTEDKNKALESAQ
modifications: Atto-565 (TFP ester labelling) where fluorescence was read; labeled protein mixed 1:1 with unlabeled protein
  binding result: binds
